13 molecules from publication PMC6100724, “Proteome‐wide analysis of phospho‐regulated PDZ domain interactions” (Molecular Systems Biology, 2018) can be followed below.

Square brackets hold non-standard residues; d marks the D form. Ends that are not written are not given here. * marks the point of attachment. FITC = O=C1OC2(c3ccc(O)cc3Oc3cc(O)ccc32)c2ccc(NC(=S)*)cc21; pS = N[C@@H](COP(=O)(O)O)C(=O)O

The labels stand for the following.
T1: FITC-RLTpSTRL (RPS6KA2 peptide, phosphorylated at p-3) (human)
T1 construct: C-terminal peptide of human RPS6KA2; source: synthetic peptide, bought: GeneCust
T1 peptide: {FITC}-RLT[pS]TRL

T2: FITC-KRpSFIESNV (TANC1 peptide, phosphorylated at p-6) (human)
T2 construct: C-terminal peptide of human TANC1; also called TANC1 phosphopeptide; source: synthetic peptide, bought: GeneCust
T2 peptide: {FITC}-KR[pS]FIESNV

T3: FITC-RLTETRL (RPS6KA2 peptide, phosphomimetic at p-3) (human, S730E (stands in the printed letters))
T3 construct: also called phosphomimetic RPS6KA2; source: synthetic peptide, bought: GeneCust
T3 peptide: {FITC}-RLTETRL

T4: FITC-KREFIESNV (TANC1 peptide, phosphomimetic at p-6) (human, Ser to Glu at p-6 (stands in the printed letters))
T4 construct: also called phosphomimetic TANC1; source: synthetic peptide, bought: GeneCust
T4 peptide: {FITC}-KREFIESNV

B1: MCC peptide RPHTNETSL (unphosphorylated) (peptide)
peptide: RPHTNETSL
notes: C-terminal nine residues of MCC (colorectal mutant cancer protein), human; source: synthetic peptide, bought: GeneCust
B2: FITC-HTNETpSL (MCC peptide, phosphorylated at p-1) (peptide)
peptide: {FITC}-HTNET[pS]L
notes: C-terminal peptide of human MCC; also called pMCC; source: synthetic peptide, bought: GeneCust
B3: FITC-labeled RPS6KA1 peptide, unphosphorylated (VRKLPSTTL) (peptide)
peptide: VRKLPSTTL
modifications: also: FITC label, position not given here
notes: C-terminal tail of human RPS6KA1; also called unphosphorylated RPS6KA1 peptide; source: synthetic peptide (FITC-labeled)
B4: MCC peptide RPHTNETpSL (p-1 phosphorylated) (peptide)
peptide: RPHTNET[pS]L
notes: C-terminal nine residues of MCC (colorectal mutant cancer protein), human; also called pMCC; source: synthetic peptide, bought: GeneCust
B5: RPS6KA2 peptide MKRLTSTRL (unphosphorylated) (peptide)
peptide: MKRLTSTRL
notes: C-terminal nine residues of RPS6KA2, human; source: synthetic peptide, bought: GeneCust
B6: Scribble PDZ1 (His-tagged, aa 719-829) (domain or fragment)
chain: not shown
notes: human Scribble, PDZ1, aa 719-829, in pETM-11; Used for MST and ITC; removal of the His tag is told only for the NMR samples; also called Scribble PDZ1 wild type; source: E. coli BL21 Gold (DE3), purified (Ni2+ Sepharose), dialysed
B7: DLG1 PDZ2 (His-tagged, aa 311-407) (domain or fragment, human, UniProt Q12959 311-407, looked up)
chain: KPVSEKIMEIKLIKGPKGLGFSIAGGVGNQHIPGDNSIYVTKIIEGGAAHKDGKLQIGDKLLAVNNVCLEEVTHEEAVTALKNTSDFVYLKVAKPTS
notes: human DLG1, PDZ2, aa 311-407, in a modified pRSET vector; also called DLG PDZ2; source: E. coli BL21 Gold (DE3), purified (Ni2+ Sepharose), dialysed
B8: FITC-HTNETSL (MCC peptide, unphosphorylated) (peptide)
peptide: {FITC}-HTNETSL
notes: C-terminal peptide of human MCC (colorectal mutant cancer protein); also called wild-type MCC peptide; source: synthetic peptide, bought: GeneCust
B9: RPS6KA2 peptide MKRLTpSTRL (p-3 phosphorylated) (peptide)
peptide: MKRLT[pS]TRL
notes: C-terminal nine residues of RPS6KA2, human; also called pRPS6KA2; phospho-RPS6KA2; source: synthetic peptide, bought: GeneCust
B10: SHANK1 PDZ (aa 652-761, His-GST tag removed) (domain or fragment, human, UniProt Q9Y566 652-761, looked up)
chain: GPGSDYIIKEKTVLLQKKDSEGFGFVLRGAKAQTPIEEFTPTPAFPALQYLESVDEGGVAWRAGLRMGDFLIEVNGQNVVKVGHRQVVNMIRQGGNTLMVKVVMVTRHPD
notes: human Shank1, PDZ, aa 652-761, in pETM-33; also called untagged SHANK1 PDZ; source: E. coli BL21 Gold (DE3), purified (Ni2+ Sepharose), tag removed with HRV3C protease
B11: MKRLTpSTRL (RPS6KA2 peptide, phosphorylated at p-3, unlabelled) (peptide)
peptide: MKRLT[pS]TRL
notes: C-terminal peptide of human RPS6KA2; also called phospho-RPS6KA2; pRPS6KA2; source: synthetic peptide, bought: GeneCust
B12: RPHTNETpSL (MCC peptide, phosphorylated at p-1, unlabelled) (peptide)
peptide: RPHTNET[pS]L
notes: C-terminal peptide of human MCC; also called phosphorylated MCC; source: synthetic peptide, bought: GeneCust
B13: FITC-labeled RPS6KA1 peptide, p-3 phosphorylated (VRKLPpSTTL) (peptide)
peptide: VRKLP[pS]TTL
modifications: also: FITC label, position not given here
notes: C-terminal tail of human RPS6KA1; also called phosphorylated RPS6KA1; source: synthetic peptide (FITC-labeled)

Settings in all cases: both partners purified
Experiment [1] addresses T5, Scribble PDZ1 (human, aa 719-829) (human, UniProt Q14160 719-829).
T5 construct: Scribble, human, PDZ1, aa 719-829 in pETM-11; The His tag was cleaved only for the NMR samples; nothing is said of cleavage for MST and ITC; also called Scribble PDZ1 wild type; source: E. coli BL21 Gold (DE3), purified (Ni2+ Sepharose)
The experiment in a line: ITC; iTC200, 25°C, 20 mM HEPES pH 7.4; protein 50-100 µM in the cell, 0.64-3 mM peptide in the syringe; single-site fit, stoichiometry fixed to 0.8-1.1; triplicate. On the technique in general: ITC needs no label: the signal is the heat of the interaction.

For experiment [2], the target named is T6, Scribble PDZ1 R762A (human, UniProt Q14160 719-829, R762A).
T6 construct: Scribble, human, PDZ1, aa 719-829 in pETM-11, with R762A; source: E. coli BL21 Gold (DE3), purified (Ni2+ Sepharose)
Described as above.
T6 sequence (Q14160 719-829 R762A): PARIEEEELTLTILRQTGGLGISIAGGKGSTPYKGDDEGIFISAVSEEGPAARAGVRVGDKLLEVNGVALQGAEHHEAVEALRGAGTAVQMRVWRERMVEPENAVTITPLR

Experiment [3] has as its target T7, Scribble PDZ1 R762A/A743R (human, UniProt Q14160 719-829, A743R | R762A).
T7 construct: Scribble, human, PDZ1, aa 719-829 in pETM-11, with R762A and A743R; also called R762A/A743R mutant; source: E. coli BL21 Gold (DE3), purified (Ni2+ Sepharose)
The description is as above.

For experiment [4], the target named is B7. In words: MST; FITC-labeled peptide fixed at 25-50 nM, protein (Scribble PDZ1 or DLG1 PDZ2) in a 1:1 dilution series; 50 mM Tris-HCl pH 7.4, 0.1% Tween-20; thermophoresis and T-Jump signal; n = 3.
For experiment [5], the target named is B6. The description is as above.
The target in a further experiment is T8, Scribble PDZ1 A743R (human, UniProt Q14160 719-829, A743R).
T8 construct: Scribble, human, PDZ1, aa 719-829 in pETM-11, with A743R; the text describes A743R only in the R762A background; source: E. coli BL21 Gold (DE3), purified (Ni2+ Sepharose)
In words: ITC; iTC200, 25°C, 20 mM HEPES pH 7.4; protein 50-100 µM in the cell, 0.64-3 mM peptide in the syringe; single-site fit, stoichiometry fixed to 0.8-1.1; triplicate.

The target in the next experiment is T9, Scribble PDZ1 K746A (human, UniProt Q14160 719-829, K746A).
T9 construct: Scribble, human, PDZ1, aa 719-829 in pETM-11, with K746A; source: E. coli BL21 Gold (DE3), purified (Ni2+ Sepharose)
Described as above.

A further experiment has as its target T10, Scribble PDZ1 R801A (human, UniProt Q14160 719-829, R801A).
T10 construct: Scribble, human, PDZ1, aa 719-829 in pETM-11, with R801A (text, methods and primers); source: E. coli BL21 Gold (DE3), purified (Ni2+ Sepharose)
The description is as above.

In experiment [6] the target is B2. In words: MST; FITC-labeled peptide fixed at 25-50 nM, protein (Scribble PDZ1 or DLG1 PDZ2) in a 1:1 dilution series; 50 mM Tris-HCl pH 7.4, 0.1% Tween-20; thermophoresis and T-Jump signal; n = 3.
For experiment [7], the target named is T1, FITC-RLTpSTRL (RPS6KA2 peptide, …). Described as above.
For experiment [8], the target named is T2, FITC-KRpSFIESNV (TANC1 peptide, …). The experiment is described as above.
Experiment [9] addresses T3, FITC-RLTETRL (RPS6KA2 peptide, …). Described as above.
The target of experiment [10] is T4, FITC-KREFIESNV (TANC1 peptide, …). The experiment is described as above.
Experiment [11] concerns the target T1, FITC-RLTpSTRL (RPS6KA2 peptide, …). In words: MST; FITC-labeled peptide fixed at 25-50 nM, untagged SHANK1 PDZ in a dilution series; PBS, 10 mM MgCl2, 0.05% Tween-20; n = 3.
For experiment [12], the target named is B6. In words: ITC; iTC200, 25°C, 20 mM HEPES pH 7.4; protein 50-100 μM in the cell, peptide 0.64-3 mM in the syringe; single-site fit, stoichiometry fixed to 0.8-1.1; n = 3.
Experiment [13] deals with T11, Scribble PDZ1 R762A (human, UniProt Q14160 719-829, R762A).
T11 construct: human Scribble, PDZ1, aa 719-829, in pETM-11, point mutant; Used for ITC; also called mutational background; source: E. coli BL21 Gold (DE3), purified (Ni2+ Sepharose), dialysed
Described as above.
T11 sequence (Q14160 719-829 R762A): as above

Experiment [14] concerns the target T12, Scribble PDZ1 R762A/A743R (human, UniProt Q14160 719-829, R762A | A743R).
T12 construct: human Scribble, PDZ1, aa 719-829, A743R introduced in the background of R762A; also called R762A/A743R mutant; source: E. coli BL21 Gold (DE3), purified (Ni2+ Sepharose), dialysed
The experiment is described as above.

T5 sequence (Q14160 719-829): as the sequence (Q14160 719-829 R762A) above, with A44R counted along it
T7 sequence (Q14160 719-829 A743R/R762A): as the sequence (Q14160 719-829 R762A) above, with A25R counted along it
T12 sequence (Q14160 719-829 A743R/R762A): as the sequence (Q14160 719-829 R762A) above, with A25R counted along it
T10 sequence (Q14160 719-829 R801A): as the sequence (Q14160 719-829 R762A) above, with A44R, R83A counted along it
T9 sequence (Q14160 719-829 K746A): as the sequence (Q14160 719-829 R762A) above, with K28A, A44R counted along it
T8 sequence (Q14160 719-829 A743R): as the sequence (Q14160 719-829 R762A) above, with A25R, A44R counted along it

Regarding B1, the results for the equilibrium dissociation constant (Kd) (in experiment [1]; with Scribble PDZ1 R762A [2]; in experiment [3]) were 4.4 µM, 11.3 µM and 5.8 µM, respectively.

B2: the dissociation constant Kd – broadly, a measure of binding affinity in units of concentration – in experiment [4] amounted to 57 µM.

Regarding B3, the equilibrium dissociation constant (Kd) in experiment [5] turned out to be 1 µM.

B4: the results for the Kd (in experiment [1]; with Scribble PDZ1 R762A [2]; in experiment [3]) were 2.6 µM, 25 µM and 14 µM, respectively.

B5: the dissociation constant (Kd) in experiment [1] came to 18 µM; with Scribble PDZ1 A743R, 15 µM; with Scribble PDZ1 K746A, 10 µM; with Scribble PDZ1 R762A [2], 9.7 µM; with Scribble PDZ1 R801A, 28 µM; in experiment [3] it was 60 µM.

With B6, the “fold higher affinity than for the unphosphorylated peptide” value (“fold higher affinity than” for short) in experiment [6] turned out to be 3 fold; in experiment [7], 5 fold. Moreover, the “fold lower affinity than for the unphosphorylated peptide” value (“fold lower affinity than” below) in [8] turned out to be 2 fold.

With B7, in [9], the “fold higher affinity than” value turned out to be 1.3 fold. Further, the “fold lower affinity than” value in experiment [10] was found to be 2.4 fold; in experiment [8], 2.9 fold.

In [4], B8 came in with a Kd of 6.4 µM.

As to B9, the equilibrium dissociation constant (Kd) in experiment [1] came to 4 µM; with Scribble PDZ1 A743R it was 2.8 µM; with Scribble PDZ1 K746A, 10 µM; with Scribble PDZ1 R762A [2], 25 µM; in the experiment with Scribble PDZ1 R801A, 17 µM; in experiment [3], 15 µM.

As for B10, in [11], the “fold lower affinity than” value is 3.6 fold.

B11: the “fold higher affinity than” value in [12] turned out to be 5 fold. The “fold weaker affinity than the wild type” value in the experiment with Scribble PDZ1 R762A [13] turned out to be 6 fold. Moreover, the binding result in [14] is reported as “binds”.

Regarding B12, in [12], the “fold lower KD than for the unphosphorylated peptide” value was 2 fold. Moreover, the binding result in experiment [14] is “binds”.

Take B13: the dissociation constant Kd in [5] is 0.39 µM.
